Measurements reported in US20090226946.

Biological target: T1, S5a, P55036
T1 chain: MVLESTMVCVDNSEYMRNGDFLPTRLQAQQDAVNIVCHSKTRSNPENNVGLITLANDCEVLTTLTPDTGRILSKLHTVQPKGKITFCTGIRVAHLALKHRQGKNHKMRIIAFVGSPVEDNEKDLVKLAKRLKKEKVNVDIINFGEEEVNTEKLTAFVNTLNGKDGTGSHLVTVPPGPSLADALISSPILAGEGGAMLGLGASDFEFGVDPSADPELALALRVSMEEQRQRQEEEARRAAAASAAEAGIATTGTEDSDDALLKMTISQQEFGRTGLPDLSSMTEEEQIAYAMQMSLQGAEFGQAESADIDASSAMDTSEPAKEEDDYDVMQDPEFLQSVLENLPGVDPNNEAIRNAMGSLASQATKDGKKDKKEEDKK

B1: His-CHIP (protein)
chain: MKGKEEKEGGARLGAGGGSPEKSPSAQELKEQGNRLFVGRKYPEAAACYGRAITRNPLVAVYYTNRALCYLKMQQHEQALADCRRALELDGQSVKAHFFLGQCQLEMESYDEAIANLQRAYSLAKEQRLNFGDDIPSALRIAKKKRWNSIEERRIHQESELHSYLSRLIAAERERELEECQRNHEGDEDDSHVRAQQACIEAKHDKYMADMDELFSQVDEKRKKRDIPDYLCGKISFELMREPCITPSGITYDRKDIEEHLQRVGHFDPVTRSPLTQEQLIPNLAMKEVIDAFISENGWVEDY
Ubiquitinated S5a? (in vitro ubiquitination assay, Western blot with anti-S5a): Yes

B2: GST-Nedd4 (protein)
chain: MATCAVEVFGLLEDEENSRIVRVRVIAGIGLAKKDILGASDPYVRVTLYDPMNGVLTSVQTKTIKKSLNPKWNEEILFRVHPQQHRLLFEVFDENRLTRDDFLGQVDVPLYPLPTENPRLERPYTFKDFVLHPRSHKSRVKGYLRLKMTYLPKTSGSEDDNAEQAEELEPGWVVLDQPDAACHLQQQQEPSPLPPGWEERQDILGRTYYVNHESRRTQWKRPTPQDNLTDAENGNIQLQAQRAFTTRRQISEETESVDNRESSENWEIIREDEATMYSNQAFPSPPPSSNLDVPTHLAEELNARLTIFGNSAVSQPASSSNHSSRRGSLQAYTFEEQPTLPVLLPTSSGLPPGWEEKQDERGRSYYVDHNSRTTTWTKPTVQATVETSQLTSSQSSAGPQSQASTSDSGQQVTQPSEIEQGFLPKGWEVRHAPNGRPFFIDHNTKTTTWEDPRLKIPAHLRGKTSLDTSNDLGPLPPGWEERTHTDGRIFYINHNIKRTQWEDPRLENVAITGPAVPYSRDYKRKYEFFRRKLKKQNDIPNKFEMKLRRATVLEDSYRRIMGVKRADFLKARLWIEFDGEKGLDYGGVAREWFFLISKEMFNPYYGLFEYSATDNYTLQINPNSGLCNEDHLSYFKFIGRVAGMAVYHGKLLDGFFIRPFYKMMLHKPITLHDMESVDSEYYNSLRWILENDPTELDLRFIIDEELFGQTHQHELKNGGSEIVVTNKNKKEYIYLVIQWRFVNRIQKQMAAFKEGFFELIPQDLIKIFDENELELLMCGLGDVDVNDWREHTKYKNGYSANHQVIQWFWKAVLMMDSEKRIRLLQFVTGTSRVPMNGFAELYGSNGPQSFTVEQWGTPEKLPRAHTCFNRLDLPPYESFEELWDKLQMAIENTQGFDGVD
Ubiquitinated S5a? (in vitro ubiquitination assay, Western blot with anti-S5a): Yes

B3: GST-Murf1 (protein)
chain: MDYKSSLIQDGNPMENLEKQLICPICLEMFTKPVVILPCQHNLCRKCANDIFQAANPYWTSRGSSVSMSGGRFRCPTCRHEVIMDRHGVYGLQRNLLVENIIDIYKQECSSRPLQKGSHPMCKEHEDEKINIYCLTCEVPTCSMCKVFGIHKACEVAPLQSVFQGQKTELNNCISMLVAGNDRVQTIITQLEDSRRVTKENSHQVKEELSQKFDTLYAILDEKKSELLQRITQEQEKKLSFIEALIQQYQEQLDKSTKLVETAIQSLDEPGGATFLLTAKQLIKSIVEASKGCQLGKTEQGFENMDFFTLDLEHIADALRAIDFGTDEEEEEFIEEEDQEEEESTEGKEEGHQ
Ubiquitinated S5a? (in vitro ubiquitination assay, Western blot with anti-S5a): Yes

B4: GST-E6AP (protein)
chain: MEKLHQCYWKSGEPQSDDIEASRMKRAAAKHLIERYYHQLTEGCGNEACTNEFCASCPTFLRMDNNAAAIKALELYKINAKLCDPHPSKKGASSAYLENSKGAPNNSCSEIKMNKKGARIDFKDVTYLTEEKVYEILELCREREDYSPLIRVIGRVFSSAEALVQSFRKVKQHTKEELKSLQAKDEDKDEDEKEKAACSAAAMEEDSEASSSRIGDSSQGDNNLQKLGPDDVSVDIDAIRRVYTRLLSNEKIETAFLNALVYLSPNVECDLTYHNVYSRDPNYLNLFIIVMENRNLHSPEYLEMALPLFCKAMSKLPLAAQGKLIRLWSKYNADQIRRMMETFQQLITYKVISNEFNSRNLVNDDDAIVAASKCLKMVYYANVVGGEVDTNHNEEDDEEPIPESSELTLQELLGEERRNKKGPRVDPLETELGVKTLDCRKPLIPFEEFINEPLNEVLEMDKDYTFFKVETENKFSFMTCPFILNAVTKNLGLYYDNRIRMYSERRITVLYSLVQGQQLNPYLRLKVRRDHIIDDALVRLEMIAMENPADLKKQLYVEFEGEQGVDEGGVSKEFFQLVVEEIFNPDIGMFTYDESTKLFWFNPSSFETEGQFTLIGIVLGLAIYNNCILDVHFPMVVYRKLMGKKGTFRDLGDSHPVLYQSLKDLLEYEGNVEDDMMITFQISQTDLFGNPMMYDLKENGDKIPITNENRKEFVNLYSDYILNKSVEKQFKAFRRGFHMVTNESPLKYLFRPEEIELLICGSRNLDFQALEETTEYDGGYTRDSVLIREFWEIVHSFTDEQKRLFLQFTTGTDRAPVGGLGKLKMIIAKNGPDTERLPTSHTCFNVLLLPEYSSKEKLKERLLKAITYAKGFGML
Ubiquitinated S5a? (in vitro ubiquitination assay, Western blot with anti-S5a): Yes

B5: GST-Siah2 (protein)
chain: MSRPSSTGPSANKPCSKQPPPQPQHTPSPAAPPAAATISAAGPGSSAVPAAAAVISGPGGGGGAGPVSPQHHELTSLFECPVCFDYVLPPILQCQAGHLVCNQCRQKLSCCPTCRGALTPSIRNLAMEKVASAVLFPCKYATTGCSLTLHHTEKPEHEDICEYRPYSCPCPGASCKWQGSLEAVMSHLMHAHKSITTLQGEDIVFLATDINLPGAVDWVMMQSCFGHHFMLVLEKQEKYEGHQQFFAIVLLIGTRKQAENFAYRLELNGNRRRLTWEATPRSIHDGVAAAIMNSDCLVFDTAIAHLFADNGNLGINVTISTCCP
Ubiquitinated S5a? (in vitro ubiquitination assay, Western blot with anti-S5a): Yes (low)
